Test results taken from patent publication US20190024103.

Tests used:
Experiment in all cases: cell_activity
Details in all cases: TALEN pair
[1] = system: GmFAD3_T03 TALEN right monomer (synthetic)
[2] = system: GmFAD3_T02 TALEN right monomer (synthetic)
[3] = system: GmFAD3_T01 TALEN right monomer (synthetic)
[4] = system: GmFAD3_T01 TALEN left monomer (synthetic)
[5] = system: GmFAD3_T03 TALEN left monomer (synthetic)
[6] = system: GmFAD3_T02 TALEN left monomer (synthetic)
[7] = soybean protoplasts, text p95 gives 2.39

Q: For “ACAAAATCATGGACAC (double strand) [FAD3A_T03 right]”, which activity [1, 7] is on record?
A: 4.4 % NHEJ

Q: For “ACTCAATTCTTGTGCC (double strand) [FAD3A_T02 right]”, which activity ([2]; soybean protoplasts) is on record?
A: 14.5 % NHEJ

Q: How did the activity ([3]; soybean protoplasts) turn out when “AGGAAGCTTTTCAGAC (double strand) [FAD3A_T01 right]” was run?
A: 10.2 % NHEJ

Q: Which activity ([4]; FAD3B off-target) does the source give for “ATGGTTAAAGACACAAAGCCTTTAGCCTATGCTGCCAATAATGGATACCAACAAAAGGGTTCTTCTTTTGATTTTGATCCTAGCGCTCCTCCACCGTTTAAGATTGCAGAAATCAGAGCTTCAATACCAAAACATTGCTGGGTCAAGAATCCATGGAGATCCCTCAGTTATGTTCTCAGGGATGTGCTTGTAATTGCTGCATTGGTGGCTGCAGCAATTCACTTCGACAACTGGCTTCTCTGGCTAATCTATTGCCCCATTCAAGGCACAATGTTCTGGGCTCTCTTTGTTCTTGGACATGATTGGTAATAATTTTTGTGTTTCTTACTCTTTTTTTTTTTTTTTTGTTTATGATATGAATCTCACACATTGTTCTGTTATGTCATTTCTTCTTCATTTGGCTTTAGACAACTTAAATTTGAGATCTTTATTATGTTTTTGCTTATATGGTAAAGTGATTCTTCATTATTTCATTCTTCATTGATTGAATTGAACAGTGGCCATGGAAGCTTTTCAGATAGCCCTTTGCTGAATAGCCTGGTGGGACACATCTTGCATTCCTCAATTCTTGTGCCATACCATGGATGGTTAGTTCATACTGGCTTTTTTGTTTGTTCATTTGTCATTGAAAAAAAATCTTTTGTTGATTCAATTATTTTTATAGTGTGTTTGGAAGCCCGTTTGAGAAAATAAGAAATCGCATCTGGAATGTGAAAGTTATAACTATTTAGCTTCATCTGTCGTTGCAAGTTCTTTTATTGGTTAAATTTTTATAGCGTGCTAGGAAACCCATTCGAGAAAATAAGAAATCACATCTGGAATGTGAAAGTTATAACTGTTAGCTTCTGAGTAAACGTGGAAAAACCACATTTTGGATTTGGAACCAAATTTTATTTGATAAATGACAACCAAATTGATTTTGATGGATTTTGCAGGAGAATTAGCCACAGAACTCACCATCAAAACCATGGACACATTGAGAAGGATGAGTCATGGGTTCCA (double strand) [FAD3B gene]” here?
A: 1.48 % NHEJ

Q: What about the activity ([1]; FAD3B off-target) of the same sequence?
A: 2.39 % NHEJ

Q: What about the activity ([3]; FAD3B off-target) of the same sequence?
A: 1.48 % NHEJ

Q: And the activity ([5]; FAD3B off-target)?
A: 2.39 % NHEJ

Q: Which activity ([6]; FAD3C off-target) does the source give for “ATGGTTCAAGCACAGCCTCTACAACATGTTGGTAATGGTGCAGGGAAAGAAGATCAAGCTTATTTTGATCCAAGTGCTCCACCACCCTTCAAGATTGCAAATATCAGAGCAGCAATTCCAAAACATTGCTGGGAGAAGAACACATTGAGATCTCTGAGTTATGTTCTGAGGGATGTGTTGGTAGTGACTGCATTGGTAGCTGCAGCAATCGGCTTCAATAGCTGGTTCTTCTGGCCACTCTATTGGCCTGCACAAGGCACAATGTTTTGGGCACTTTTTGTTCTTGGACATGATTGGTAACTAATTATTATTACAAATTGTTATGTTATGTTATGTTATGTTGTTGTGCCTTTTTCTCAGTGATGCTTTAGTCATTTCATTTCACTTGGTTATGCATGATTGTTCGTTCATATGTTCTGTCATGGTGAGTTCTAATTTGATTGATGCATGGAACAGTGGTCATGGAAGTTTTTCAAACAGTCCTTTGTTGAACAGCATTGTGGGCCACATCTTGCACTCTTCAATTCTTGTACCATACCATGGATGGTCGGTTCCTTTTAGCAACTTTTCATGTTCACTTTGTCCTTAAATTTTTTTTTATGTTTGTTAAAAAATCTTTGGTCTGATTTAACAACCTAACCATTTTTACAACTCATGGATTTTTTGCAGGAGAATTAGCCACAGGACTCACCATCAGAACCATGGCCATGTTGAGAAGGATGAATCATGGGTTCCG (double strand) [FAD3C gene]” here?
A: 0.01 % NHEJ

Q: And the activity ([4]; FAD3C off-target)?
A: 0.04 % NHEJ

Q: And the activity ([2]; FAD3C off-target)?
A: 0.01 % NHEJ

Q: And the activity ([1]; FAD3C off-target)?
A: 0.17 % NHEJ

Q: What about the activity ([3]; FAD3C off-target) of the same sequence?
A: 0.04 % NHEJ

Q: What about the activity ([5]; FAD3C off-target) of the same sequence?
A: 0.17 % NHEJ

Q: How did the activity ([2]; FAD3B off-target) turn out when “CCTCAATTCTTGTGCC (double strand) [FAD3B T02 right site]” was run?
A: 8.81 % NHEJ

Q: For “CTAAATAGCCTGGTGT (double strand) [FAD3A_T02 left]”, which activity ([6]; soybean protoplasts) is on record?
A: 14.5 % NHEJ

Q: How did the activity ([6]; FAD3B off-target) turn out when “CTGAATAGCCTGGTGG (double strand) [FAD3B T02 left site]” was run?
A: 8.81 % NHEJ

Q: How did the activity ([4]; soybean protoplasts) turn out when “TCATTCTTCACATTGT (double strand) [FAD3A_T01 left]” was run?
A: 10.2 % NHEJ

Q: Which activity [5, 7] does the source give for “TTTGCAGGAGAATTAT (double strand) [FAD3A_T03 left]” here?
A: 4.4 % NHEJ
